Results as given in a protein production outcome set (Wang et al. 2014).

Experiment: label from the status in PepcDB records
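Note: failed if final PepcDB status was selected cloned or expressed and not failed if soluble or beyond.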

For “MEKKLKRRESMSTTAAESPPAKRRRTVTGNENSALIEGLPDHISEICLSLVHRPSLLSAVCTRWRRLLYSPEFPSFPSLYALFVDSTSDTGRVNPSVRFMCFNPVSSKWYPLPPPPPDPPLHRILYRHPSFISFNLPIQCVSAAGKLILIAGSNQQLSPAISHPLIFDPISSSWSSGPRIGSPRRWCATGACDGAIYIASGISSQFSSTVAKSVEKLDLTEQNRNNHRFNWEKLRDMRDLRFSREAIDAVGYRRKLLMVNVKGDAVKEGAIYDVVKDDWEPMPEEMLVGWRGPVAAMEEEILYSVDERRGTVRKYDDEKREWREVVVVEGGEEMLKGATQVTADSGKLCVVTGDGKIVVVDVAAEPAKIWNVEIPDGLEPVSVHVLPRMSQPNFC”, the protein production was “failed”.

In the case of “SSSTEVKDNVLTEEEKAEGYTLLFNGKDFTGWKMFNGGDVKGWQVEDGVIVGYGNGGDVIADTTIKVSTDIVTVKNYHNFQIKWDWKIGAQGNSGFLYHVQEGPKYKAPFETGPEYQLIDDDNYPWVSETGKEGLEDWQKTGCNYAMYVPETKQVNPPGEWNSSMVLYKDGYVEHWLNGEKLFSFQEGSEDWKMRRYSGKWEAFPDYGISTTGKLCFQDHGSKVYFKNVKIKDLD”, the protein production is reported as “not failed”.

With “MTENEFLSQEEIDKLLSDSDTGGVLTPEEKDMIGEIGNIAMGSAATTLSMILGRDIHITVPTVREEKMKNVKSDFSGEQVVVSVEYTEGLEGLNVLVLDKKLVAVIADLMMGGSGEVETEELDEIKLSAVGEAMNQMMGSAATSLSELLGITINISPPKVEI” the protein production was “not failed”.

With “QNKKSGNPILPGFHADPEVLYSHQTKRYYIYPTSDGFPGWGGSYFKVFSSKNLKTWKEETVILEMGKNVSWANGNAWAPCIEEKKIDGKYKYFFYYSANPTTNKGKQIGVAVADSPTGPFTDLGKPIITSSPTGRGQQIDVDVFTDPVSGKSYLYWGNGYMAGAELNDDMLSIKEETTVVLTPKGGTLQTYAYREAPYVIYRKGIYYFFWSVDDTGSPNYHVVYGTAQSPLGPIEVAKEPIVLIQNPKEEIYGPAHNSILQVPGKDKWYIVYHRINKNHLNDGPGWHREVCIDRMEFNPDGTIKQVIPTP” the protein production was “not failed”.

In the case of “MRISKTTKIGALTLIALFLLYFGLNYLKGFNVFKRANVYYAAFPEVKNVNIASPVLVNGYKVGVVKSLSFDYKNGRSIVVGIDLESEYRMPKGSHLAIHQTALSGAELRIIQGDPRDGYLNPGDTIRSETPDDIMSVTSNKIVPSVVNMMPKVDSVIVGLANMVNNPNLAVMMENMAATAQRLNRLTASLDKSIGTQLPAVMANTRTITDNVAMLSEELKQLKLEALMAELQATSENLRSFSDQIRNSNGSLGMLLNDKSLYMRLDSMASSADALLRDLKANPKRYVHFSVF”, the protein production is reported as “failed”.

With “MIRPEYLRVLRKIYDRLKNEKVNWVVTGSLSFALQGVPVEVHDIDIQTDEEGAYEIERIFSEFVSKKVRFSSTEKICSHFGELIIDGIKVEIMGDIRKRLEDGTWEDPVDLNKYKRFVETHGMKIPVLSLEYEYQAYLKLGRVEKAETLRKWLNERKG” the protein production was “not failed”.

In the case of “PRMIVFGAIDFASALARAGKFLGHHVTVCDARPVFATPARFPDADEVVVEWPHEYLARTAVDARTVLCVLTHDAKFDIPLLRLALRLPVAYVGAMGSRRTHLDRAARLREAGV”, the protein production is reported as “failed”.

For “MLRNTSHSYGGIARALHWLCALAVIAALVFIELKGNFPKGDPLRSGLGYAHVQAGLIVLLLVLPRLAWRLGNPPPAIEPAPSPAMNLLAHAGHWALYALMLALPILGIAFIQANGREVALFGLALPAFMPNDPPLGKELKEIHELLGNVLLWLSILHAAAAVWHHRFLKDDTLTRLTGPMR”, the protein production was “failed”.

For “MAFQLHPRLQQDCIVLGNLPLCKVLLIKEDIGPWLILVPRIEELKEIHHMTDEQQIQFIKESSAVAQLLEDNFSPDKINIGALGNLVPQLHIHHIARFTTDVAWPGPVWGNTTGVIRAQSSQTQLVDLLRDKLSNISGFKRLEHHHHHH”, the protein production was “not failed”.

For “MKYSLGIDLGTTFSVVSIIDENGAPKVLKNKEGNTLTPSVIYFSGEEIIVGDDAKEMQAMGDNNIACFFKRNMGDENFVLEFQNKYYNAEDLSVIVLKKLKKDAEDFLKAEVKDAVITVPAYFNNIQRQSTINAGKRAEFNVLSILNEPTAAAMAYGMKASGENKNILVYDLGGGTFDVTLVHIGEELIKVLSTDGDHELGGKDWDDRIAMYIGEKFFEKFGVNPMDDIEYYNDILVKCENVKKHLSKRESTDISIYYCDLSEKFTITKEIFLGLTGDLLQRTKSLSDDVIKSAGLTWEDIDGVLPVGGSTRMPMVLDFIKEVSKKEPIVGINVDEAVSIGAAIKASMENATNTPTLRREEKALFTLGGYKKTEDVMSHSLGMIALNSTGERYINSIIIEKNKKIPCTEKRPYEIRTGRNRNNVLEVYMLQGESEEISDCTILGKYVFYDIEYVGRKPSIIDIEYSYNKNGVVDVFATQRETAKKLPLKIEKLSEDFIFEEELNEKEEAVHKNIVIAIDLSGSMRGKPLEEAIEASKTFVDSIDEGSFSLALIGFADKVKTLINLTEDREEIFRAIDGLKKADVGTSTMSEPFSEAYNILKDAYGDCFVVVLTDGQWYGKKDIMAEVNKCKEYEIEIAAIGFGNAKKDFLDKIATCEENSIFTEVSNLKQSFSRIAKVISRSDGSIKIFQKSNSIKLR”, the protein production was “failed”.

For “MTKSQIMDLSNFYQDTDYPSGRLIALLILSLGLTPAEIANLKKADFDTTFNILSIEKSQMKRILKLPEDLLPFLLESLEEDGDLVFEHNGKPYSRQWFFNQLTDFLNEKNEQQLTAQLLREQFILKQKENGKTMTELSRLLGLKTPITLERYYRLEHHHHHH”, the protein production was “not failed”.

With “MNIGTFDRLLFAYSIGSHILIVLMSIGLSVILPVLEYIAIKYKDVYYDLLTRRVAKALVMFFAVGTASGAVMAVELIDLFPKFMTIIAVVGVLPFYYEIFAFFLETIMLVSYYYYWDVFKNRMHHWLLTFGVAGGTLASAVFITMINAWMNTPNGFNISYYEKTGKLIDVNPFITALTPSTGREVFHVVIVTAFAGLMVLGAFFAYQYLRAKTEEAKTLYMKGLKVTFPMNMFLIIMAGLSGTLEMSGLLTYQPEKYAALDLNPYPIARDAPEHLFGTIVEKNGHYYVLGGIKIPFVQSLLAGNGNLNTPVPGLSQFPTSTWPPLAVHDTFDLMVIGGTLLGLFLLSVLIAWILKKKPYESKGFMVAQILFAILTIPIYIGGWVTDEVGRQPWIIYNVMTVYQAANYSPSIIVPGYLIMAFYTILMPFSYWYAFRLMKQGDVKKEISSYKMPSTAHGR” the protein production was “failed”.

With “MNFVTLTSDEFNAFTTKHFSHYTQSAIHYNHRVDLKGDVHLVGVKDDNGQVIAGCLLTEARTLKFFKYFYTHRGPVMDYTNQSLVAFFFKALTSYLKKHNCLYVLVDPYLIENLRNADGEIVKSYDNRAFVRTMDKLGYKHQGFPVGYDSMSQIRWLSVLDLKDKTEDQLLKEMDYQTRRNIKKTYDIGVKTKTLTIDETQTFFDLFHMAEEKHGFKFRELPYFEEMQKLYDDHAMLKLAYIDLNEYLKTLQLKQQQLTAELSGVEEALEESPNSKKNKTKRTQLEQQLNSNKRKIDNTIEQIEQDGAVLNLASALFIYNEHEVYYLSSGSNPKYNAYMGAYHLQWEMIKFAKAHHIDRYNFYGITGDFSESSEDYGVQQFKKGFNAHVEEYIGDFIKPIKPLLYKVQTYLNHKRR” the protein production was “failed”.

In the case of “MHSATIIIGIVCGWIFILTTVQFLYLLIIKRDLQPTGWCSFMEKDYLGISSTVLVSLLFGLALVLVNSWFNQPTVEEVVPRSTYLMVMIALFFIDTVAFIFMQLYFIYDRRQFSNCILSLAFLSCLIYFIKTVIIIQQIIEGRLTSSVVQNDIAIYYLFRQMSLCILIFLALVNKVSENTKQRNLFSKKMTLCISLFFVVGGPIVAHILSSHYESYNLHIAELTNENDQVVWKASYVTIMIFMWLTLLSVNLYFNGLRCDIWNGVTVIAFCAVLYNVSLLFMSRYSVSIWYISRTIEVVSKLTVMVIFMCHIFSALRVTKDIAHRDSLTNIFNRNYFFNELTVQSASAKKTPYCVMIMDIDHFKKVNDTWGHPVGDQVIKTVVSIIGKSIRPDDLFARVGGEEFGVLLTDIDTERAKALAERIRENVERLTGDNPEYAIPQKVTISIGAVVTQKNELNPKEIYQLADNALYEAKETGRNKVVVKEAEILINRKDDE”, the protein production is reported as “failed”.
